The values below come from patent publication US20230295329A1 (published 2023).

B1: Hu32a-85.IgG4AA (antibody, V domains shown)
VH: EVQLVQSGAEVKKPGSSVKVSCKASDFTFTDYEIHWVKQAPGHGLEWIGLFDPETGGIVYNQKFKGKATLTADKSTSTAYMEFSSLRSEDTAVYYCTREGYNRDWYFDVWGQGTTVTVSS
VL: DIVMTQTPLSLPVTPGEPASISCRSSQSLVHSTGNTYLEWYLQKPGQSPQLLIYKVSNRFSGVPDRFSGSGSGTDFTLKISRVEAEDVGVYYCFQGSHVPYTFGGGTKVEIKR
notes: Full-length IgG4-AA (S228P, F234A, L235A) antibody with kappa light chain
B2: Hu23-11.IgG4AA (antibody, V domains shown)
VH: EVQLVQSGAEVKKPGSSVKVSCKASGGTFSDYEMHWVRQAPGQGLEWMGLIDPETGGTVYNQKFKDRVTITADKSTSTAYMELSSLRSEDTAVYYCARERFSYYGSTSDWYFDVWGQGTTVTVSS
VL: B1 VL
notes: Full-length IgG4-AA (S228P, F234A, L235A) antibody with kappa light chain; LCDR1 mutant N28T (Kabat)
B3: H005-1 (antibody, V domains shown)
VH: EVQLVESGGGLVQPGGSLRLSCAASGFTFSSYMMSWVRQAPGKGLEWVATISGGGANTYYPDSVKGRFTISRDNAKNSLYLQMNSLRAEDTAVYYCARQLYYFDYWGQGTTVTVSS
VL: DIQMTQSPSSLSASVGDRVTITCLASQTIGTWLTWYQQKPGKAPKLLIYTATSLADGVPSRFSGSGSGTDFTLTISSLQPEDFATYYCQQVYSIPWTFGGGTKVEIKR

For this assay, the target named is T1, PD-1-His protein (Cat. #10377H08H, Sino Biological) (human, UniProt Q15116 25-167).
T1 construct: Bought reagent; also called huPD-1-his; hu PD-1-his; not shown: His tag of the bought protein
T1 sequence (Q15116 25-167 limits assumed): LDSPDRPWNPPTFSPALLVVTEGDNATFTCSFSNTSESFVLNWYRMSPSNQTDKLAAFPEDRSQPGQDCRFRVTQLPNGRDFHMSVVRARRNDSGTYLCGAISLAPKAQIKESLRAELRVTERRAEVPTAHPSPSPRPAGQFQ
The assay can be described thus: ELISA, PD-1-His coated, HRP goat anti-human IgG detection. A general note: ELISA stands for enzyme-linked immunosorbent assay.
On to B1, for which the “OD value MAX” value worked out at 1.26. For B2 the value was 1.46; for B3, 1.21.
